Source: patent US20090175855A1 (Genentech, published 2009)

T1: HVEM expressed on transfected 293 cells (Homo sapiens (Human), UniProt Q92956 39-283)
T1 construct: also called HVEM transfected cells; 293 cells expressing HVEM
T1 sequence: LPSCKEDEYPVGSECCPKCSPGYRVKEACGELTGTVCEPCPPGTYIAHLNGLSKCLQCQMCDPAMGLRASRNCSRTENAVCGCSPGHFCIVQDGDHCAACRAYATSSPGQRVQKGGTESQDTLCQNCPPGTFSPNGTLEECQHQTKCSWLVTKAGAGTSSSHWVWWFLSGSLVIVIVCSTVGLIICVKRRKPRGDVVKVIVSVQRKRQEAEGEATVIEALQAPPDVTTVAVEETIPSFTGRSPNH

T2: hICOS-Fc (human, UniProt Q9Y6W8 21-141, limits assumed)
T2 construct: Bought (R&D systems); not shown: Fc; not described
T2 sequence (looked up): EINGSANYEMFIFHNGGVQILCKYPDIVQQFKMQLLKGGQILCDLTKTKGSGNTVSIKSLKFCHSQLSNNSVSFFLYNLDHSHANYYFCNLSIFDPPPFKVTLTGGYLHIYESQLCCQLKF

T3: hCTLA4-Fc (human, UniProt P16410 37-162, limits assumed)
T3 construct: Bought (R&D systems); not shown: Fc; not described
T3 sequence (looked up): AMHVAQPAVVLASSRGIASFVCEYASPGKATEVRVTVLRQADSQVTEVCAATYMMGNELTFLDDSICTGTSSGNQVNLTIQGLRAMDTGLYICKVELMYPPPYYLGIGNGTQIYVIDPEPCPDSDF

T4: PRO87299(ECD)-Fc (human, UniProt Q7Z6A9 31-155, I-125 radiolabel in the cell binding assays (Table 7); residues not stated)
T4 construct: Extracellular domain (amino acids 1-155) ligated into a plasmid containing a human Fc domain; also called PRO87299-Fc; PRO87299(ECD)-Fc chimera; not shown: human Fc domain
T4 sequence: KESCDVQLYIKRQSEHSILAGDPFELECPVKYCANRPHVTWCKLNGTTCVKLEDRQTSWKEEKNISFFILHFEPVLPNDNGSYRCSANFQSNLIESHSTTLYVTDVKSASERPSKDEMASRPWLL

B1: LIGHT-FLAG (ligand)
chain: GEMVTRLPDGPAGSWEQLIQERRSHEVNPAAHLTGANSSLTGSGGPLLWETQLGLAFLRGLSYHDGALVVTKAGYYYIYSKVQLGGVGCPLGLASTITHGLYKRTPRYPEELELLVSQQSPCGRATSSSRVWWDSSFLGGVVHLEAGEEVVVRVLDERLVRLRDGTRSYFGAFMV
modifications: I-125 radiolabel; residues not stated
notes: also called I-125-LIGHT-FLAG; not shown: FLAG tag
B2: HVEM-Fc (Fc fusion)
chain: LPSCKEDEYPVGSECCPKCSPGYRVKEACGELTGTVCEPCPPGTYIAHLNGLSKCLQCQMCDPAMGLRASRNCSRTENAVCGCSPGHFCIVQDGDHCAACRAYATSSPGQRVQKGGTESQDTLCQNCPPGTFSPNGTLEECQHQTKCSWLVTKAGAGTSSS
modifications: I-125 radiolabel in the cell binding assays (Table 7); residues not stated
notes: also called I-125-HVEM-Fc; HVEM-Fc fusion protein; not shown: Fc

Key:
[1] = biological target: T1, HVEM expressed on transfected 293 cells; assay: radioligand binding to transfected cells, Scatchard analysis
PRO87299 on cells = biological target: T5, PRO87299 on cells (human, UniProt Q7Z6A9 31-289); assay: as above
T5 construct: Used both for transfected cells and for the native protein on human primary B and CD4+ T cells; also called PRO87299 transfected cells; 293 cells expressing PRO87299

[2] = biological target: T6, LIGHT expressed on transfected cells (Homo sapiens (Human), UniProt O43557 1-240); assay: as above
T6 construct: also called Expressed protein LIGHT

[3] = biological target: T7, PRO87299/LIGHT (both expressed on the same cells) (human, UniProt Q7Z6A9 31-289; O43557 1-240); assay: radioligand binding to cells expressing PRO87299/LIGHT, Scatchard analysis
T7 construct: also called Expressed protein PRO87299/LIGHT

hCD28-Fc = biological target: T8, hCD28-Fc (human, UniProt P10747 19-152, limits assumed); assay: Biacore; hCD28-Fc amine coupled to a CM5 chip, HVEM-Fc injected at 2 ug/ml and 5 ul/min
T8 construct: Bought (R&D systems); not shown: Fc; not described

hICOS-Fc = biological target: T2, hICOS-Fc; assay: Biacore; hICOS-Fc amine coupled to a CM5 chip, HVEM-Fc injected at 2 ug/ml and 5 ul/min
hPD-1-Fc = biological target: T9, hPD-1-Fc (human, UniProt Q15116 25-167, limits assumed); assay: Biacore; hPD-1-Fc amine coupled to a CM5 chip, HVEM-Fc injected at 2 ug/ml and 5 ul/min
T9 construct: Bought (R&D systems); not shown: Fc; not described

hCTLA4-Fc = biological target: T3, hCTLA4-Fc; assay: Biacore; hCTLA4-Fc amine coupled to a CM5 chip, HVEM-Fc injected at 2 ug/ml and 5 ul/min
PRO87299(ECD)-Fc = biological target: T4, PRO87299(ECD)-Fc; assay: Biacore; HVEM-Fc amine coupled to a CM5 chip at 150 RU, PRO87299-Fc 17 nM injected at 5 ul/min for 1200 s, alone and mixed with 25 nM LIGHT

T9 sequence (Q15116 25-167 limits assumed): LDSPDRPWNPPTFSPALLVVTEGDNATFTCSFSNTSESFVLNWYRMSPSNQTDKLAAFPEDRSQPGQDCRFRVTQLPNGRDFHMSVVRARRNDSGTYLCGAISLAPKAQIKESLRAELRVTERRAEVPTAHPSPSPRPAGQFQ
T8 sequence (P10747 19-152 limits assumed): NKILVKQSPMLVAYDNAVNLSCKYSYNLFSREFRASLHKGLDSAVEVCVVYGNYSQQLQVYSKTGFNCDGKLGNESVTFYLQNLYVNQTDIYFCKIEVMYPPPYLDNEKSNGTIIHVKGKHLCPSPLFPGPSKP

Row | Binder | Kd [1] [nM] | Kd (PRO87299 on cells) [nM] | Kd [2] [nM] | Kd [3] [nM] | binding result (hCD28-Fc) | binding result (hICOS-Fc) | binding result (hPD-1-Fc) | binding result (hCTLA4-Fc) | binding result (PRO87299(ECD)-Fc)
1 | B1 | 2.5 |  |  |  |  |  |  |  | 
2 | B2 |  | 5.5 | 7 | 0.5 | no binding (tested: 2 ug/ml) | no binding (tested: 2 ug/ml) | no binding (tested: 2 ug/ml) | no binding (tested: 2 ug/ml) | binds
